Holding throughout (assay): DNA electrochemistry
The target in one data set is T1, StXPB2 (Sulfolobus tokodaii, UniProt Q970I2 1-439).
T1 sequence: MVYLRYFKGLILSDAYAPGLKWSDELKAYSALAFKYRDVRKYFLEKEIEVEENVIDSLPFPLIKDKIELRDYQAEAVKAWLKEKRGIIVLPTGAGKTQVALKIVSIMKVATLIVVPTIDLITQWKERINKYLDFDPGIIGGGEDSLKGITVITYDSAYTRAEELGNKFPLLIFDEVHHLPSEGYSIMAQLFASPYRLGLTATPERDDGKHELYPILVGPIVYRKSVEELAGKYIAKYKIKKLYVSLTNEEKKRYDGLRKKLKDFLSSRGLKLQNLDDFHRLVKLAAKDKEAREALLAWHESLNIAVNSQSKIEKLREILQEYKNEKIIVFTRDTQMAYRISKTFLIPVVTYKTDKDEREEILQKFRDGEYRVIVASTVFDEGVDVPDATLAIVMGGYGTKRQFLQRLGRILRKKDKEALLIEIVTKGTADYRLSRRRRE

In a further data set the target is T2, AfXPB (Archaeoglobus fulgidus, UniProt O29889 1-452).
T2 sequence: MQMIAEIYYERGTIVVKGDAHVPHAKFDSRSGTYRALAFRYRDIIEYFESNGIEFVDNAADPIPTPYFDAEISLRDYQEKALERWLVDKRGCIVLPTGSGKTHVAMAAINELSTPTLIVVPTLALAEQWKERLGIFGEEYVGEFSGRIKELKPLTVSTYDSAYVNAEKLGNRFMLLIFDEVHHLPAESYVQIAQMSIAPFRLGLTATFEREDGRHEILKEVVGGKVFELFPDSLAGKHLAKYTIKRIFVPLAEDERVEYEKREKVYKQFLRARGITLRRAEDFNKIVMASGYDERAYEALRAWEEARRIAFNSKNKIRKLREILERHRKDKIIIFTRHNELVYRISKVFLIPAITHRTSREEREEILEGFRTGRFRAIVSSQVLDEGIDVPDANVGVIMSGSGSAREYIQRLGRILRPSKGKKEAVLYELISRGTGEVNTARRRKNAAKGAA

The target of another data set is T3, StXPB1 (Sulfolobus tokodaii, UniProt Q971U1 1-543).
T3 sequence: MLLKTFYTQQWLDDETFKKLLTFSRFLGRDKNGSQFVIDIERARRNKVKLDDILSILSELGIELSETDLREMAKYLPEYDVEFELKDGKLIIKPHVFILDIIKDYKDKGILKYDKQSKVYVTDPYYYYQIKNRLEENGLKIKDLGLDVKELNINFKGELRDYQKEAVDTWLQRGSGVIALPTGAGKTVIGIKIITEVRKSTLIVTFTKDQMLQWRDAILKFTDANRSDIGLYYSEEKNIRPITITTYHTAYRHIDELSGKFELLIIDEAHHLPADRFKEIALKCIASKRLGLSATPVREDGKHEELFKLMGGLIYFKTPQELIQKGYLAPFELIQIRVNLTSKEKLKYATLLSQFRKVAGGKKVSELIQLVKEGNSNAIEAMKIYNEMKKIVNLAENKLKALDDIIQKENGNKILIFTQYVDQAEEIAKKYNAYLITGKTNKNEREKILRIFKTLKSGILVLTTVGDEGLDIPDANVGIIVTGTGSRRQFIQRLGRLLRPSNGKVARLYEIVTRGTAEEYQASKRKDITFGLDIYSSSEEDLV

B1: 17mer well-matched duplex (WM) (dsDNA)
DNA 1: GAGATATAAAGCACGCA
DNA 2: TGCGTGCTTTATATCTC
modifications: strand 1 5' C6 thiol on gold electrode; strand 2 5'-terminal T is Nile Blue-modified (5-acrylate dU)
With B1, the Kd with StXPB2 was 50 ± 10 nM; with AfXPB, 22 ± 8 nM; with StXPB1 it was 8 ± 2 nM.

In general, Kd refers to the constant that tells how readily two partners part at equilibrium.

(Values after paper PMC5957534.)
